According to doi:10.1101/089938v2:

Tests used:
[1] = substrate: C[C@@H](N)C(=O)O; assay: racemization assay, HPLC of derivatized L- and D-Ala; assay type: biochemical, Streptomyces coelicolor; details: D- to L-Ala direction
[2] = substrate: C[C@H](N)C(=O)O; assay: as above; assay type: biochemical, Streptomyces coelicolor; details: L- to D-Ala direction

B1: AlrSco (alanine racemase from Streptomyces coelicolor A3(2), SCO4745) (Streptomyces coelicolor A3(2)) (protein)
chain: MSETTARRDADAVLRARAEIDLAALRANVRALRERAPGAALMAVVKADAYGHGAIPCARAAVAAGATWLGTATPQEALALRAAEPGLPDDVRIMCWLWTPGGPWREAVEARLDVSVSAMWAMEEVTGAARAAGVPARVQLKADTGLGRGGCQPGADWERLVGAALRAEEEGLLRVTGLWSHFACADEPGHPSIAAQLTRFREMTAYAEQRGLRPEVRHIANSPATLTLPDAHFDLVRPGIAMYGVSPSPEIGTPADFGLRPVMTLAASLALVKQVPGGHGVSYGHHYTTPGETTLGLVPLGYADGIPRHASSSGPVLVDGKWRTVAGRIAMDQFVVDLGGDRPEPGAEAVLFGPGDRGEPTAEDWAQAAGTIAYEIVTRIGSRVPRVYVNE
B1 was tested, and the Km [1] was 8.9 mM and the Km [2] was 6.3 mM.
